Reference: patent CN116063506A (HUADAO SHANGHAI BIOMEDICAL CO LTD, dated 2023)

Molecular target: T1, CD4抗原 (表面抗原分化簇4, Cluster of Differentiation 4) (UniProt P01730 26-458, limits assumed)
T1 construct: whole, on cells; also called 细胞表面的CD4抗原; Nalm6-CD4
Test: flow cytometry on Nalm6-CD4 cells; antibody from 4 μg/mL in 4-fold dilutions, 10 concentrations; APC goat anti-mouse IgG secondary

B1: 分离的抗体(标记为CD4-14) (antibody, V domains shown)
VH: QVQLVQSGPELKKPGASVKVSCKASGYTFTDYVIHWVKQATGQGLEWIGEIYPGSGSAYSNAKFKDRVTMTADKSSNTAYMELSSLTSDDTAVYFCARRGNGTGFAYWGQGTLVTVSS
VL: DIVLTQSPASLAVSLGQRATITCKAGQSVDYDGDSYMNWYQQKPGQPPKLLIYVASNLESGIPARFSGSGSGTDFTLNIHPVEENDAATYYCQQSYKDPLTFGQGTKLEIK
notes: also called 分离抗体; 本发明的分离抗体
For B1, which EC50 is on record?
The EC50 was 0.152 µg/mL.
